Measured values reported in patent US20120015347A1.

Columns and labels:
[1] = target: HEL-Dylight633 conjugate (hen egg lysozyme labeled with Dylight633) (chicken) (UniProt P00698); assay: microfluidic fluorescence bead assay; mAb captured on rabbit anti-mouse pAb Protein A beads, labeled antigen in flow
[2] = target: HEL-Dylight633 conjugate (hen egg lysozyme labeled with Dylight633) (chicken) (UniProt P00698); assay: microfluidic fluorescence bead assay; compared with D1.3 mAb on HEL
[3] = target: HEL-Dylight488 conjugate (hen egg lysozyme labeled with Dylight488) (chicken) (UniProt P00698); assay: microfluidic fluorescence bead assay; mAb captured on rabbit anti-mouse pAb Protein A beads, labeled antigen in flow

Kd [1] [nM]	koff [1] [s⁻¹]	kon [1] [M⁻¹ s⁻¹]	fold larger association rate constant than D1.3 mAb [2] [fold]	fold smaller dissociation rate constant than D1.3 mAb [2] [fold]	fold smaller equilibrium dissociation constant than D1.3 [2] [fold]	Kd [3] [nM]	Substance
0.03	0.000169	5.75e+06	4	10	40	–	HyHEL-5 mouse monoclonal antibody to lysozyme
–	–	–	–	–	–	1.2	D1.3 mouse monoclonal antibody (mAb) to lysozyme
